system: T1, MsmR1 (Paenibacillus polymyxa SC2-M1 (SC2 derivative)), ORF:0fff1571; assay: EMSA; settings: Chemiluminescent EMSA kit (Beyotime); labeled probe about 0.4 uM, competitor about 4 uM, protein gradient; buffer, salt, pH and temperature not stated
T1 sequence: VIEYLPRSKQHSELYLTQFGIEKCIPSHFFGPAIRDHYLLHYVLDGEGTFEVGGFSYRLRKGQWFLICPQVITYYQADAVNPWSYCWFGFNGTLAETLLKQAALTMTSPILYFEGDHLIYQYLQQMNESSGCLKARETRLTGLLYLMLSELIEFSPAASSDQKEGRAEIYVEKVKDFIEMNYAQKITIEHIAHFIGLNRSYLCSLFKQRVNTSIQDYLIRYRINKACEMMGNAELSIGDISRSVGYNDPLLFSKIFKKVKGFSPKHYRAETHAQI

binding, binds:
ACCATTTCCCGGGCAATCGGCTGCCGGGTGCGAATGGAATCGCCCAAGTCCCCTCGTGCCAGTTCACTTAGATAGGTCCCATATTGCTGTAGCCACGGCTTATCCAGCCCTAATTGCTCACGCAGCGCCTGTTTGGACTGTTCCGTGGCCTTGTCCCCGAGTATCGTTTCTGCCGGATCACCGGGAATAGCATGAATAATCGAAAACACGATAAGCGTCATCCCCA (double strand) [oppC3 upstream fragment]
ATATGATTTCTGTAGAACCTACTGCTATATTGTTGGATCTTATCAAGCTTTACACCATATGAACTTAGTTGACGCCTGCTACATAAAGATTCTTCTAAGTGCCTTTTTGGTGTGGATCTCTGATGATTATTATCTAAGAGAGGGGTTATTTTTCCCAA (double strand) [msmR1 promoter]
CAGAGGAAATGCATGTCCGTATTATCGGAGACAACACGATTTCCCGCAAAAATCATGCGGTCATTGTGTATGATCCGAAGAAACGCAACTTTTACTTGCTGCCAGGCGATTCGTCAGGCTTGGCGTATCACAATAACGAGGCGGTATATTCACCAGTGGAGCTGGCTGCTTATGACGTGATTCAGCTCGGGCGCAGCAAATTTATCTTTATTCCGCTGTGCGGCGCTCATTTCGAGTGGGA (double strand) [pppL upstream fragment]
CAGCAACGCACCTCAAGAGATTGCAGGTGTGAAGGTAGACAAAGTACTGGACTACTCGCAAGGCTTGGACGGACTTCCGCAGGAAAACGTACTCAAGTTTTTATTGGAGGACGGTTCTTGGTTCTGCCTGCGTCCTTCGGGCACAGAGCCTAAAATCAAAGTATACTTTGCAGTACGTGGTTCCTC (double strand) [PPSC2_23180 upstream fragment]
CCGATTCATCTCATTTACGCATGGATATGTTGAGAAAAAGGAAATGCTCATAGCTAGAAAACTTTATACAATGAAAGAGAAATAAGCACTGTGAAATTCGACTTTTGATCATGGATTTCATATAATGTGAATTGCTTAAATTAGAGATTTAAC (double strand) [sucA upstream fragment]
CGGAACAAATGGATCTTCGCAAAGAATACCTTCAAATCTTTCGAGGCTCTATCAAAAGCATACTTTTGAATGCTACGATTTATGATCCGAATGGAGATGATGTTACTCCTGAAAAATTAAGAAAAGAACAGGCTCAAATCGTTAAGCCATGAATTTAATTTTGTCT (double strand) [ydfp upstream fragment]
GGACGAATCGCACATGAGGCTTTCCCCAACAAACGTGACAGTTTTAGAGCCTTGGGCAATTATGTAAAGAGAGGGCATGTTGAGGGTATGCGTCGGTTTCGACTCCGCGGATGCGCGCCTGAAACAAAGCTCTGGAATCGCTGTTTGGTGTAAACCATCCTTAGGCGTATGCCGTGCTATTTGCTTAGCTAACTCCGTAATGAGTTGGTTCAAACTTGTTCACCAATCCTTTTTCATTTAATCTGATATGAATATTGTAATTCAAACCGGACAGGAATAGGCAAGGAACGCGTATGAAT (double strand) [sdr3 upstream fragment]
TGATCTGGTAACACCGAACTTATTCGAGGCTTCACAGCTGGCGAAGAAAGGACCGATCACGACACTGGAGCAGATGCAGGAAGCGGCTGCTATTATCCACGAGCGTGGTGCTAAGCATGTGCTGATCAAGGACCGTGGCAAAATTCGCGCAGGTAAAGCGATGGATCTGCTGTATGACGGAATCACTTTTGACTGGTTTGAAGCGGATGTTGTACAAACCAACTTTACCCACGGTGCAGGCTGTACCACTTCGGCTGCGGTAACGGCTGGTTTGGCACAAGGGCTGACTGTAC (double strand) [pepF upstream fragment]

— paper PMC9722767
